Measured values taken from patent US20050101769A1 (VLAAMS INTERUNIVERSITAIR INSTITUUT VOOR BIOTECHNOLOGIE VZW, published 2005).

B1: cytoplasmic region of TNF-RII (receptor, UniProt P20333 288-461, looked up)
chain: KKKPLCLQREAKVPHLPADKARGTQGPEQQHLLITAPSSSSSSLESSASALDRRAPTRNQPQAPGVEASGAGEARASTGSSDSSPGGHGTQVNVTCIVNVCSSSDHSSQCSSQASSTMGDTDSSPSESPKDEQVPFSKEECAFRSQLETPETLLGSTEEKPLPLGVPDAGMKPS
notes: domain: cytoplasmic region
B2: 4F2d2, TTRAP deletion mutant, amino acids 54 to 236 (other)
chain: MERALNSYFEPPVEESALERRPETISEPKTYVDLTNEETTDSTTSKISPSEDTQQENGSMFSLITWNIDGLDLNNLSERARGVCSYLALYSPDVIFLQEVIPPYYSYLKKRSSNYEIITGHEEGYFTAIMLKKSRVKLKSQEIIPFPSTKMMRNLLCVHVNVSGNELCLMTSHLESTRGHAAE
notes: Yeast two-hybrid fusion
B3: FADD (other, UniProt Q13158 1-208, looked up)
chain: MDPFLVLLHSVSSSLSSSELTELKFLCLGRVGKRKLERVQSGLDLFSMLLEQNDLEPGHTELLRELLASLRRHDLLRRVDDFEAGAAAGAAPGEEDLCAAFNVICDNVGKDWRRLARQLKVSDTKIDSIEDRYPRNLTERVRESLRIWKNTEKENATVAHLVGALRSCQMNLVADLVQEVQQARDLQNRSGAMSPMSWNSDASTSEAS
B4: cytoplasmic region of CD30 (receptor, UniProt P28908 407-595, looked up)
chain: CHRRACRKRIRQKLHLCYPVQTSQPKLELVDSRPRRSSTQLRSGASVTEPVAEERGLMSQPLMETCHSVGAAYLESLPLQDASPAGGPSSPRDLPEPRVSTEHTNNKIEKIYIMKADTVIVGTVKAELPEGRGLAGPAEPELEEELEADHTPHYPEQETEPPLGSCSDVMLSVEEEGKEDPLPTAASGK
notes: domain: cytoplasmic region
B5: 4F2d3, TTRAP deletion mutant, amino acids 54 to 273 (other)
chain: MERALNSYFEPPVEESALERRPETISEPKTYVDLTNEETTDSTTSKISPSEDTQQENGSMFSLITWNIDGLDLNNLSERARGVCSYLALYSPDVIFLQEVIPPYYSYLKKRSSNYEIITGHEEGYFTAIMLKKSRVKLKSQEIIPFPSTKMMRNLLCVHVNVSGNELCLMTSHLESTRGHAAERMNQLKMVLKKMQEAPESATVIFAGDTNLRDREVTRC
notes: Yeast two-hybrid fusion
B6: 4F2, TTRAP deletion mutant, amino acids 54 to 362 (other)
chain: MERALNSYFEPPVEESALERRPETISEPKTYVDLTNEETTDSTTSKISPSEDTQQENGSMFSLITWNIDGLDLNNLSERARGVCSYLALYSPDVIFLQEVIPPYYSYLKKRSSNYEIITGHEEGYFTAIMLKKSRVKLKSQEIIPFPSTKMMRNLLCVHVNVSGNELCLMTSHLESTRGHAAERMNQLKMVLKKMQEAPESATVIFAGDTNLRDREVTRCGGLPNNIVDVWEFLGKPKHCQYTWDTQMNSNLGITAACKLRFDRIFFRAAAEEGHIIPRSLDLLGLEKLDCGRFPSDHWGLLCNLDIIL
notes: also called longest TTRAP fragment (aa 54-362); TTRAP/4F2
B7: TTRAP (TRAF and TNF receptor associated protein), full-length human (other)
chain: MELGSCLEGGREAAEEEGEPEVKKRRLLCVEFASVASCDAAVAQCFLAENDWEMERALNSYFEPPVEESALERRPETISEPKTYVDLTNEETTDSTTSKISPSEDTQQENGSMFSLITWNIDGLDLNNLSERARGVCSYLALYSPDVIFLQEVIPPYYSYLKKRSSNYEIITGHEEGYFTAIMLKKSRVKLKSQEIIPFPSTKMMRNLLCVHVNVSGNELCLMTSHLESTRGHAAERMNQLKMVLKKMQEAPESATVIFAGDTNLRDREVTRCGGLPNNIVDVWEFLGKPKHCQYTWDTQMNSNLGITAACKLRFDRIFFRAAAEEGHIIPRSLDLLGLEKLDCGRFPSDHWGLLCNLDIIL
notes: Protein of 362 amino acids; In the yeast two-hybrid assays it is a fusion expressed from the prey plasmid (pJG45); also called CD40 receptor associated protein
B8: 4F2d1, TTRAP deletion mutant, amino acids 54 to 140 (other)
chain: MERALNSYFEPPVEESALERRPETISEPKTYVDLTNEETTDSTTSKISPSEDTQQENGSMFSLITWNIDGLDLNNLSERARGVCSYL
notes: Yeast two-hybrid fusion
B9: LMP-1 (other)
chain: YYHGQRHSDEHHHDDSLPHPQQATDDSGHESDSNSNEGRHHLLVSGAGDGPPLCSQNLGAPGGGPDNGPQDPDNTDDNGPQDPDNTDDNGPHDPLPQDPDNTDDNGPQDPDNTDDNGPHDPLPHSPSDSAGNDGGPPQLTEEVENKGGDQGPPLMTDGGGGHSHDSGHGGGDPHLPTLLLGSSGSGGDDDDPHGPVQLSYYD

What was measured:
[1] = molecular target: B5; assay: yeast two-hybrid, colour formation on X-gal; '-' = none
Procedure: (§1) The potential binding of TTRAP to other proteins was assessed using a yeast two-hybrid assay. The experimental outline is similar to the one described for the two-hybrid screening. However, here the plasmids for bait, prey and lacZ reporter were transformed simultaneously into the EGY48 yeast strain. Positive interaction was determined either by the growth phenotype (growth on medium lacking leucine in the presence of galactose, and not in the presence of glucose) or by the blue/white staining on X-gal containing plates (blue colonies only on galactose containing plates, not on glucose containing plates). cDNA's for TRAF2 and for the cytoplasmic regions of CD30, CD40 and TNF-RII were generated by PCR using the pfu polymerase (Promega). PCR fragments encoding RIP, TRADD and FADD were cloned in pCDNA3 (Invitrogen, Carlsbad, Calif.). cDNA of TRAF3 was obtained from the laboratory of Dixit, Dept Pathol., Univ. Michigan Med. School, MI, USA. The color formation was evaluated as strong and fast (++), strong but slow (+), weak and slow (±), none (−) or not determined (nd).

[2] = molecular target: B2; assay: as above
Procedure: as §1

[3] = molecular target: B6; assay: yeast two-hybrid, colour formation on X-gal (column = prey, row = bait)
Procedure: as §1

[4] = molecular target: B7; assay: as above
Procedure: as §1

[5] = molecular target: B6; assay: yeast two-hybrid, colour formation on X-gal; '-' = none
Procedure: as §1

[6] = molecular target: B7; assay: as above
Procedure: as §1

[7] = molecular target: the molecule itself; assay: yeast two-hybrid, colour formation on X-gal (column = prey, row = bait)
Procedure: as §1

[8] = molecular target: the molecule itself; assay: yeast two-hybrid (in Table I: TTRAP prey with 4F2 bait)
[9] = molecular target: B1; assay: yeast two-hybrid, colour formation on X-gal; '-' = none
Procedure: as §1

B1: no binding [1]; no binding [2]; binds [3]. B1: binds [4].

B2: no binding [5].

B3: no binding [6].

B4: binds [3]; binds [4].

B5: no binding [5].

B6: binds [7]; binds [4].

B7: binds [8].

B8: no binding [5]; no binding [9].

B9: no binding [5]; no binding [6].
